Square brackets hold non-standard residues; d marks the D form. Ends that are not written are not given here.
What was measured:
[1] = system: A2780 (endometroid ovarian cancer) cells; test: MTT cell proliferation assay; format: cell-based; settings: 5, 10 and 20 μg/ml, 24 hours, vs untreated control
Method: (§1) This example describes the effect of the AMH receptor binding peptides from Example 1 on cellular proliferation, in accordance with certain example embodiments. Briefly, the first two AMH receptor binding peptides (SEQ ID NOS:1-2) from Table 1 were tested on four types of AMHR2-expressing, immortalized, chemotherapy-resistant ovarian cancer cells: SKOV-3 (ovarian serous cystadenocarcinoma), EL-1 (epithelial ovarian cancer), A2780 (endometroid ovarian cancer), and MDAH (endometroid ovarian cancer) in an MTT Assay (Trevigen™ MTT Cell Proliferation Assay).
(§2) For each cell line, cells were seeded into Falcon tissue culture treated 96-well plates in a fixed volume of 100 mcl at a density of 8,000 cells/well. […] Each experiment was executed in triplicates. For 3+1 treatments×3 wells+10 extra=22 wells×8000 cells per well, the total number of cells needed per AMH receptor binding peptide/cell line was 176,000. The cells were spun down in a sterile 15 ml conical tube for 5 minutes at 200×g and then resuspended in 2.2 ml of media (100 ul per well×22 wells). 100 mcl of the cell-containing fluid (=8,000 cells) were placed in each well of the 96-well plate. After 24 hours the media was removed from each well and replaced with the 4 treatment media (phenol-free media). At this point, 10 extra wells with media, but no cells, were created per each cell line (10×4=40 wells). The AMH receptor binding peptides (AMHR2BP (SEQ ID NO: 1) or AMHR2BP2 (SEQ ID NO: 2)) were administered in the culture medium and the effects analyzed after 24 hours in culture as percentage reduction of cell replication using an MTT […] assay.

[2] = system: SKOV-3 (ovarian serous cystadenocarcinoma) cells; test: MTT cell proliferation assay; format: cell-based; settings: 5, 10 and 20 μg/ml, 24 hours, vs untreated control
Method: as §1, §2

[3] = system: MDAH (endometroid ovarian cancer) cells; test: MTT cell proliferation assay; format: cell-based; settings: 5, 10 and 20 μg/ml, 24 hours, vs untreated control
Method: as §1, §2

[4] = system: EL-1 (epithelial ovarian cancer) cells; test: MTT cell proliferation assay; format: cell-based; settings: 5, 10 and 20 μg/ml, 24 hours, vs untreated control
Method: as §1, §2

AMH-R2 = target: T1, AMH-R2 (Homo sapiens, UniProt Q16671); test: peptide microarray assay identifying AMH receptor binding peptides; settings: microarray signal
T1 construct: GST
T1 sequence (Q16671 18-573): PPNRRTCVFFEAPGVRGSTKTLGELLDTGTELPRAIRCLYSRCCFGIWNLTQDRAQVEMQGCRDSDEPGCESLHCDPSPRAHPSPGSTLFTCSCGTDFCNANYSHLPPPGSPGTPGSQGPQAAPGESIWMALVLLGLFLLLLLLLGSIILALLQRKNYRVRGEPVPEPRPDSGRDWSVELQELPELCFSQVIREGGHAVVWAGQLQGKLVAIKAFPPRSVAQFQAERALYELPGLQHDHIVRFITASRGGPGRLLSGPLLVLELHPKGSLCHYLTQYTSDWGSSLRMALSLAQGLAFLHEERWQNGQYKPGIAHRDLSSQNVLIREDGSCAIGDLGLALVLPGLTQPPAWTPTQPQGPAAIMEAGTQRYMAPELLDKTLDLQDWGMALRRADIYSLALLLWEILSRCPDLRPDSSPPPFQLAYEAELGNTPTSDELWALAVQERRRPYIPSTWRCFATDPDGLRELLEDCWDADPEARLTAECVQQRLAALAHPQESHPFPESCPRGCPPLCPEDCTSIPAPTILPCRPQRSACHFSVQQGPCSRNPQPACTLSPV
Source text: In view of the several actions of AMH, and because of the need for AMH receptor agonists and/or antagonist that can modify the activity of one or more of the AMH receptors, provided herein are AMH receptor binding peptides that modulate the activity of the AMH receptor, as described herein. Briefly, it was hypothesized that peptides that bind AMH receptors could be generated based on the amino acid sequence of the AMH biding site of the AMH-R2 receptor. More particularly, based on the amino acid sequence of the AMH-R2 that is responsible for binding AMH, as well as the amino acid sequences of AMH-R2 that are near the AMH binding site, a peptide microarray was used to identify candidate AMH receptor binding peptides that can activate AMH-R2 and thus produce similar effects to native AMH.
To identify candidate AMH receptor binding peptides described herein, a custom peptide library composed of replicate copies of a 124,000 17 mer peptide microarray was synthesized (Arizona State University, Tempe, AZ) using the method described in Legutki, J. B., et al., Scalable high-density peptide arrays for comprehensive health monitoring. Nat Commun., volume 5, 4785 (2014). The slide was assembled into an Arrayit 4×24 Hybridization Cassette and each peptide microarray was blocked with 150 uL of 30% human sera in 1×PBST for 1 hour at room temperature with shaking After blocking, the slide was washed 3× with 1×PBST using a Biotek plate washer prior to addition of protein targets. Each protein sample was diluted in 30% human sera in 1×PBST and 150 uL of each sample was dispensed into the appropriate wells in the cassette and incubated for 1 hour at 37 C with rotation at 300 rpm on a ThermoMix™ 500 heater/shaker.
After incubation, the cassette was dismantled, the slide washed 3 times in 1×PBST, rinsed three times with distilled, deionized water (ddH2O), and dried in a centrifuge for 2 minutes at 800 rpm. Secondary antibody (anti-GST, GE Healthcare™) was prepared at 10 nM in 30% human sera in 1×PBST and dispensed onto the slide. The slide was incubated for 1 hour at 37 C with rotation at 300 rpm as before. The slide was then washed 3 times in 1×PBST, rinsed 3 times with ddH2O, and dried in a centrifuge for 2 minutes at 800 rpm. Detection antibody, 10 nM Alexa Flour 647 donkey anti-goat IgG (H+L) (ThermoFisher Scientific™), was prepared in 0.75% casein in 1×PBST and dispensed onto the slide. The slide was covered and incubated for 1 hour at 37 C with rotation as before. The slide was washed 3 times in 1×PBST, rinsed 3 times with ddH2O, and dried in a centrifuge for 2 minutes at 800 rpm. The slide was scanned on an Innopsys™ Inoscan 910AL scanner and the resulting TIFF files were analyzed using the Genepix™ Pro 6.0 software. Data files were exported and analyzed using Microsoft Excel™ and JMP™ software.

luteinized GCs = settings: rAMH group; cited from earlier work
[5] = system: ovarian follicles of C57BL/6J female mice; test: in vivo mouse ovary histology, follicle count and cell proliferation
Source text: Knowledge of the developmental landmarks and the highly inbred conformity made C57BL/6J female mice a natural choice for this study. In this mouse strain, puberty is characterized by vaginal opening at approximately 25 days of life, estrus 3-4 days later, and subsequently by regular cycling every 5-6 days. Maturity is considered to be reached at 90 days of life (12 weeks).
Briefly, 24 C57BL mature female mice (18 weeks old) were allocated to four (4) experimental groups: baseline group (6 mice), AMHR2BP (SEQ ID NO: 1) group (6 mice), a recombinant rAMH group (6 mice), and control group (6 mice; 21 weeks of age, that received saline). The six mice in the baseline group were euthanized at the beginning of the experiment and comprised the baseline against which to compare the 2 experimental, and the control, groups. Mice in the AMHR2BP (SEQ ID NO: 1) group received AMHR2BP (SEQ ID NO: 1) at a daily dose of 50 μg/day (BP group); the rAMH group received recombinant AMH (rAMH) at a daily dose of 1.8 μg/day (to obtain 24.0 ng/ml serum level), and the control group received normal saline.
In order to accomplish this task, an osmotic pump was implanted intraperitoneally at time zero. […] The osmotic pump (ALZET Osmotic Pumps, model 1004, Cupertino, CA) administered AMHR2BP (SEQ ID NO: 1) and rAMH with a flow rate (QT) of 0.11 μl/h for 4 weeks, based on a mouse temperature of 36.9° C. and a tissue osmolality of 7.5 atm. The daily AMHR2BP (SEQ ID NO: 1) dose was chosen based on the results of Example 3 (above) and estimated in vitro to in vivo extrapolation (IVIVE), while the rAMH dose was determined as described in reference. Mice in the control group were treated with normal saline by using the same osmotic pump vehicle implanted intraperitoneally. All mice in the 2 experimental, and the control, groups were euthanized 3 weeks into the experiment. All mice underwent a blood draw just prior to euthanasia, and their ovaries were explanted for real-time RT-PCR and histological analyses.
After dissection, one ovary was stored in formalin and embedded in paraffin for immunohistochemical examination of follicular development and count with hematoxylin and eosin staining, while Ki67 slides were used for examination of cell proliferation. The other ovary was frozen for mRNA analysis (see below). Five μm-thick sections were serially cut and every 5th section analyzed for follicular counts. All ovarian cortex specimens where obtained from each group, and at least three sections were analyzed in each tissue specimen. The computerized program used for image analysis, CaseCenter™ by 3DHistech Pathology Information System™ (Version 2.3; Budapest, Hungary), allowed us to examine all the sections at the same time and to accurately count all the follicles in each section without redundancy. For follicle counting, the investigators were blinded to the treatment groups. One oocyte surrounded by a monolayer of flat, or cubic, granulosa cells enclosed by a basement membrane identified a primordial (PDF) and a primary follicle (PRF), respectively. Secondary follicles (SEF) were identified with one oocyte surrounded by multiple layers of cubic granulosa cells, and tertiary follicles (TEF) by fluid accumulation amid the granulosa cells.

[6] = mouse ovarian cortex, 3 weeks, i.p. osmotic pump, AMHR2BP 50 μg/day, rAMH 1.8 μg/day

## NGSSlQAVNrlSGVS (NGSS[dL]QAVN[dR][dL]SGVS) [SEQ ID NO: 2]
[1]
  cell proliferation: reduced cellular proliferation
[2]
  cell proliferation: reduced cellular proliferation
[3]
  cell proliferation: reduced cellular proliferation
[4]
  cell proliferation: reduced cellular proliferation
AMH-R2; average of Rep 1 and Rep 2
  Average: 65535
AMH-R2; replicate 1
  Rep 1: 65535
AMH-R2; replicate 2
  Rep 2: 65535

B1: rAMH: recombinant Anti-Müllerian hormone (rAMH), comparator in the mouse study (protein, UniProt P03971 452-560, looked up)
Muellerian-inhibiting factor: SAGATAADGPCALRELSVDLRAERSVLIPETYQANNCQGVCGWPQSDRNPRYGNHVVLLLKMQVRGAALARPPCCVPTAYAGKLLISLSEERISAHHVPNMVATECGCR
Luteinized GCs
  reduction of Ki67 and Caspase3: greater than 30%
[5]; control group 21 weeks' age
  PDFs compared with the control (placebo) group: maintained
  PRFs compared with the control (placebo) group: low
  SEFs compared with the control (placebo) group: lower
  TEFs compared with the control (placebo) group: lower
[5]; [6]
  Corp. Lutea/mm^3 Median: 7.5 /mm^3
  PDF/mm^3 Median: 1182 /mm^3
  PRF/mm^3 Median: 514 /mm^3
  SEF/mm^3 Median: 1144 /mm^3
  TEF/mm^3 Median: 871 /mm^3

— patent US12662542B2, “Agnostic anti-mullerian hormone receptor binding peptides” (OVARES D LLC, priority 2019, dated 2026)
